From article PMC12786276

Target: CD47 (endogenously expressed in MDA-MB-231 cells) (human (endogenous in MDA-MB-231)) (UniProt Q08722)
UniProt Q08722, sequence (Q08722 19-323): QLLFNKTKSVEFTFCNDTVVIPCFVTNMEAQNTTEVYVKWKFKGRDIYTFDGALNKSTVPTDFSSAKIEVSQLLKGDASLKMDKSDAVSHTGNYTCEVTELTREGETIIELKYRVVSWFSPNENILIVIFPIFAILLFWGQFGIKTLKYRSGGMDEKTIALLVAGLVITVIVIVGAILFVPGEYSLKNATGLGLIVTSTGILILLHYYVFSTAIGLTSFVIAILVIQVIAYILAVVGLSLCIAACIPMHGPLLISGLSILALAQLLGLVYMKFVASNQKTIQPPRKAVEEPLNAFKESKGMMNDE

Row | phagocytosis of MDA-MB-231 cells by macrophages (flow cytometry) after PSFL-NK13 (4 µM, 48 h) [fold] | Substance
1 | 3 | integrin αv subunit (endogenously expressed in MDA-MB-231 cells) (natural protein)
2 | 3 | integrin β3 subunit (endogenously expressed in MDA-MB-231 cells) (from UniProt P05106 27-788) (natural protein)
